Reference: article PMC8101487 (Molecular Biology of the Cell, 2021)

Molecular target: T1, Frq1 (S. cerevisiae, UniProt Q06389 1-190)
T1 sequence (looked up): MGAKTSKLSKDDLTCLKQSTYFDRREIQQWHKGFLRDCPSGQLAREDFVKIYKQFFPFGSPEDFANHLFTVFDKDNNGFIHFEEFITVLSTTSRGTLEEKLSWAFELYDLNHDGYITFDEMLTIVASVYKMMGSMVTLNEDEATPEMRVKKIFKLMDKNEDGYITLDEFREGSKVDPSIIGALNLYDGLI
Assay: SEC

binding result: binds
B1: Pik1(121-174) peptide (peptide, UniProt P39104 121-174, looked up)
peptide: ASYGFQVARRVLNNLQTNLFNTSSGSDKNVKIHENVAPALVLSSMIMSAIAFPQ
